Data from US8791249B2, “Nucleic acid encoding humanized c-kit antibody” (Amgen Inc., priority 2006, dated 2014).
Several values for one entry are separate records, joined by “and”; a condition that tells them apart may be missing. Identical values can stand only once. Entries after “also recorded” stand apart in the source; their conditions may differ.

Key:
c-Kit dimer = test: Biacore binding to c-Kit dimer versus soluble monomer; design: species or system human; details: Biacore
Source text: Activation of c-Kit upon binding by stem cell factor (SCF) leads to dimerization/oligomerization, autophosphorylation and receptor internalization, most likely through a clathrin-dependent pathway. The SR-1 monoclonal antibody binds the c-Kit dimer with 1000-fold higher affinity compared to the soluble c-Kit extra-cellular domain monomer as determined by Biacore.
Carbohydrates present on a glycoprotein can influence biological and functional properties. […] This is an important characteristic not predicted to be translated with certainty with the humanization and as the soluble c-Kit monomer is less likely to act as a sink for the antibody in vivo.

[1] = system: human CD34+, CD 117+ (c-Kit) bone marrow cells; test: CD34+ bone marrow cell CFU assay (SCF/GM-CSF colony formation), human; type: cell-based; details: 1.0 ug/mL
Method: (§1) The SR-1 monoclonal antibody was selected based on its equivalent functional potency at human and monkey c-Kit in the CD34+ bone marrow cell CFU assay (inhibition at 1.0 ug/mL), and its monkey PK.

monkey c-Kit = test: CD34+ bone marrow cell CFU assay, monkey; type: cell-based; details: 1.0 ug/mL
Method: as §1

[2] = system: basal lung and colon mast cells; test: Depletion of basal lung and colon mast cells in monkey; type: in vivo
Method: as §1
[…] […] For practical reasons, basal pulmonary mast cells were evaluated on day 28 at the time of necropsy and the termination of the study.

hematopoiesis = test: Hematopoiesis in SR-1 dose-ranging study; type: in vivo, African green monkey
Method: (§2) SR-1 was used in dose-ranging studies from 3 to 30 mg/Kg administered once weekly for 4 weeks to determine the exposures required to inhibit hematopoiesis, spermatogenesis and active melanogenesis. A full blood panel including cell differentials was performed on blood samples taken at baseline, day 4, 7, 14, 21 and 28 after the start of the study. Analysis of freshly isolated blood samples was performed at the Queen Elizabeth Hospital Clinical Hematology lab, Barbados.
(§3) The effect of 3-30 mpk administered once weekly for 4 weeks on melanogenesis was also examined since there may be utility in melanoma. To assess the effects on activated melanocytes which may better reflect a disease state, hair was depilated to activate melanogenesis. […] In the 10 mg/Kg cohort, SR-1 exposures were >8000-fold the UT-7 IC50.

melanocytes = test: Melanogenesis (hair pigmentation after depilation) in dose-ranging study; type: in vivo, monkeys
Method: as §2, §3

spermatogenesis = test: Spermatogenesis in dose-ranging study; type: in vivo, monkey
[3] = system: wound activated skin mast cells; test: Wound pharmacodynamic model of mast cell expansion in monkey; details: for inhibition of wound activated expansion of mast cells: 3 weeks
c-Kit = c-Kit (Homo sapiens, UniProt P10721); design: endogenous in cells; host or cells: MO7e cells; cultured human mast cells derived from bone marrow CD34+ cells; primary human CD34+ CD117+ bone marrow cells; UT-7 cells; details: Broudy, J Cell Physiol. 1994; cited from earlier work
c-Kit, sequence (P10721 26-976): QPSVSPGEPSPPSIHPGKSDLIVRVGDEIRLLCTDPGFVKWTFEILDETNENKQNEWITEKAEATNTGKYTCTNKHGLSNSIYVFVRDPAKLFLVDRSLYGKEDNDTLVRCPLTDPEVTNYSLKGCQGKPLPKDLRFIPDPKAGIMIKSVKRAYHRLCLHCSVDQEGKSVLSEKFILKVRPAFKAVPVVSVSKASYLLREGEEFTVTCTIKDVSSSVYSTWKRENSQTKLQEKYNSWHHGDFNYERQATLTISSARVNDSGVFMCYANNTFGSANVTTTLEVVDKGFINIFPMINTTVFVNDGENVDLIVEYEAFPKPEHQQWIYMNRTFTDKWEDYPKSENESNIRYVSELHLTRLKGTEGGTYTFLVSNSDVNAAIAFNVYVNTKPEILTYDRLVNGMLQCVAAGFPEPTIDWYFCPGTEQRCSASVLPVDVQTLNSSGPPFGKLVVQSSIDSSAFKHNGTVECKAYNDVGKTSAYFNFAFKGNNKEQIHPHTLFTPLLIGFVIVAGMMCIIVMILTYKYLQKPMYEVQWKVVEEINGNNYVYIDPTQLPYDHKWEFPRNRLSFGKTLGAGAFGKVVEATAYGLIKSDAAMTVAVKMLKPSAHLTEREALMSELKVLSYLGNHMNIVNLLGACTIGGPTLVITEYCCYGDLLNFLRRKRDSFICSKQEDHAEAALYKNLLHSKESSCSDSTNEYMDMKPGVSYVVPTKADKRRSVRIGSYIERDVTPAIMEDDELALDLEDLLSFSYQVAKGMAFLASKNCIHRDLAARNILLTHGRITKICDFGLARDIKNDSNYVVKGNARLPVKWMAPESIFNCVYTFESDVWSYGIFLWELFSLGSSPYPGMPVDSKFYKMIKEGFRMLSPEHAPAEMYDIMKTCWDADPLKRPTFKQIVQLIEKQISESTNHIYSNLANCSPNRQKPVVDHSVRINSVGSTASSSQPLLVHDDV

c-Kit dimer, sequence (P10721 26-509 limits assumed): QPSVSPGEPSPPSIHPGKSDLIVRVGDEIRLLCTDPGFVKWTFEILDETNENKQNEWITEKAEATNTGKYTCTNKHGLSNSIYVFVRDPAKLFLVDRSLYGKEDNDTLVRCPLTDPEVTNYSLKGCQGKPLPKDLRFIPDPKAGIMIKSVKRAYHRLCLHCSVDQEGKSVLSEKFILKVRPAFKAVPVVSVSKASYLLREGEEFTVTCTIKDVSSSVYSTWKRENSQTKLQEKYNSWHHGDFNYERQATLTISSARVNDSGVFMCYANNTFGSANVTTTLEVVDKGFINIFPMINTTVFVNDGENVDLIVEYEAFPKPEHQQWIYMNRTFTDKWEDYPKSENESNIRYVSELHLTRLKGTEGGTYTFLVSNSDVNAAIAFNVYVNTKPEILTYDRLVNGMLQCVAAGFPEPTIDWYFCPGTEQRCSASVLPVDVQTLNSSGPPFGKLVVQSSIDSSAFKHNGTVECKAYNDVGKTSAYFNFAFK

B1: SR-1: Murine anti-human c-Kit antibody; light chain SEQ ID NO: 8, muIgG2a heavy chain SEQ ID NO: 10 (antibody, listed as Homo sapiens)
heavy: MGWSCIILFLVATATGVHSQVQLQQPGAELVKPGASVKMSCKASGYTFTSYNMHWVKQTPGQGLEWIGVIYSGNGDTSYNQKFKGKATLTADKSSSTAYMQINSLTSEDSAVYYCARERDTRFGNWGQGTLVTVSAAKTTAPSVYPLAPVCGDTTGSSVTLGCLVKGYFPEPVTLTWNSGSLSSGVHTFPAVLQSDLYTLSSSVTVTSSTWPSQSITCNVAHPASSTKVDKKIEPRGPTIKPCPPCKCPAPNLLGGPSVFIFPPKIKDVLMISLSPIVTCVVVDVSEDDPDVQISWFVNNVEVHTAQTQTHREDYNSTLRVVSALPIQHQDWMSGKEFKCKVNNKDLPAPIERTISKPKGSVRAPQVYVLPPPEEEMTKKQVTLTCMVTDFMPEDIYVEWTNNGKTELNYKNTEPVLDSDGSYFMYSKLRVEKKNWVERNSYSCSVVHEGLHNHHTTKSFSRTPGK
light: METDTLLLWVLLLWVPGSTGNIVLTQSPASLAVSLGLRATISCRASESVDIYGNSFMHWYQQKPGQPPKLLIYLASNLESGVPARFSGSGSRTDFTLTIDPVEADDAATYYCQQNNEDPYTFGGGTKLEIKRADAAPTVSIFPPSSEQLTSGGASVVCFLNNFYPKDINVKWKIDGSERQNGVLNSWTDQDSKDSTYSMSSTLTLTKDEYERHNSYTCEATHKTSTSPIVKSFNRNEC
- affinity for c-Kit dimer compared to soluble c-Kit extra-cellular domain monomer (c-Kit dimer): 1000 fold
- functional potency at human c-Kit in CFU assay [1]: inhibition
- functional potency at monkey c-Kit in CFU assay (monkey c-Kit): inhibition
- Ctrough PK level as fold the UT-7 cellular IC50 ([2]; 3.0 mg/Kg once weekly, basal lung mast cell depletion): > 200 fold
- depletion of basal lung mast cells ([2]; 3.0 mg/Kg once weekly, day 28): depletion of basal lung mast cells was observed
- depletion of basal colon mast cells, time course ([2]; 3 mg/Kg to 30 mg/Kg once weekly, after 2 doses by day 14): maximally depleted
- Ctrough as fold the cell IC50 at depletion of basal mast cells ([2]; day 14): > 800 fold
- exposure levels as fold the UT-7 IC50 (hematopoiesis; 30 mg/Kg once weekly over 4 weeks): > 70,000 fold
- impact on hematological parameters (hematopoiesis; 3 to 30 mg/Kg once weekly for 4 weeks, versus control and baseline): No significant impact
- RBCs (hematopoiesis; 4 weeks after dosing started): non-significant decreases
- CD117 positive hematopoietic stem cells (hematopoiesis; bone marrow): no depletion
- bone marrow histopathological analysis (hematopoiesis; monkey, in vivo): no difference between drug treated and control cohorts
- exposures as fold the UT-7 IC50 (melanocytes; 10 mg/Kg cohort): > 8000 fold
- pigmentation of newly regrown hair (melanocytes; 10 mg/Kg cohort): No effect
- pigmentation of newly regrown hair (melanocytes; 30 mg/Kg dose): inhibition of hair pigmentation to variable degrees
- normal hair color of the coat (melanocytes; 3-30 mpk once weekly for 4 weeks, any cohort): not visibly affected
- exposure (fold the cell IC50) required before qualitative impacts on pigmentation of newly regrown hair (melanocytes; monkey, in vivo): > 8000 fold
- no effect dose on hair pigmentation (melanocytes; once weekly for 4 weeks): 10 to 30 mg/kg
- effect on spermatogenesis at lowest dose (spermatogenesis; 0.3 mg/Kg once weekly): less than the maximal effect; also recorded: sub-maximal effect
- exposure as fold the UT-7 IC50 (spermatogenesis; 0.3 mg/Kg once weekly): 7 fold and > 7 fold
- inhibition of spermatogenesis (spermatogenesis; 0.3-30 mg/Kg): dose-dependent inhibition
- recovery of spermatogenesis (spermatogenesis; 9 months, all dosed animals): Normal spermatogenesis
- inhibition of wound activated expansion of mast cells ([3]; 0.3 mpk dose): partial inhibition
- inhibition of wound activated expansion of mast cells ([3]; 1 and 3 mg/Kg cohorts): maximal efficacy
- effect on mast cells in wound activated model ([3]; FIG. 1): inhibits mast cells
- sustained Ctrough exposure (fold the IC50) required for maximal inhibition of wound-expanded mast cells ([3]; monkey, in vivo): > 7 fold
- minimal effective dose in the wound PD model ([3]; once weekly for 2 weeks in monkeys): < 0.3 mg/kg
- intrinsic activity at c-Kit (c-Kit): some agonist-like activity
